The values below come from patent US20190060394A1 (HONG KONG BAPTIST UNIVERSITY, published 2019).

Assay [1] addresses bovine serum albumin (BSA) (bovine) (UniProt P02769). Description: luminescence titration, selectivity assay.
Assay [2] addresses T1, Wild type EBNA1 protein (379-641 a.a.) fusing with glutathione S-transferase (Epstein-Barr virus, UniProt P03211 379-641).
T1 construct: Expressed in E. coli (BL21), purified on glutathione sepharose; also called WT-EBNA1; WT EBNA1; not shown: glutathione S-transferase (GST) fusion partner
T1 sequence: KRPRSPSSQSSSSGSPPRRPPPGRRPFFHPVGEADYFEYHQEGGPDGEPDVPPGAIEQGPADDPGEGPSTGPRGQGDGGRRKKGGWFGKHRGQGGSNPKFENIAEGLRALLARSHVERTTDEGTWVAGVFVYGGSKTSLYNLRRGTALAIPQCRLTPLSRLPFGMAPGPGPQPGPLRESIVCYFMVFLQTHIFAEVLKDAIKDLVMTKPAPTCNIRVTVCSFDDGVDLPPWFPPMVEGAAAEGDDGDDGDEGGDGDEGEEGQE
Put plainly: luminescence titration in PBS, same conditions as L2P4.

Assay [3] addresses T1, Wild type EBNA1 protein (379-641 a.a.) …. Put plainly: luminescence titration in PBS, double logarithm regression.
The target is the same in assay [4]. Description: luminescence titration in PBS buffer.
The target of assay [5] is T2, EBNA1 as present in the nucleus of EBV-positive cells (C666-1, NPC43, Raji) (Epstein-Barr virus, UniProt P03211 1-641).
T2 sequence: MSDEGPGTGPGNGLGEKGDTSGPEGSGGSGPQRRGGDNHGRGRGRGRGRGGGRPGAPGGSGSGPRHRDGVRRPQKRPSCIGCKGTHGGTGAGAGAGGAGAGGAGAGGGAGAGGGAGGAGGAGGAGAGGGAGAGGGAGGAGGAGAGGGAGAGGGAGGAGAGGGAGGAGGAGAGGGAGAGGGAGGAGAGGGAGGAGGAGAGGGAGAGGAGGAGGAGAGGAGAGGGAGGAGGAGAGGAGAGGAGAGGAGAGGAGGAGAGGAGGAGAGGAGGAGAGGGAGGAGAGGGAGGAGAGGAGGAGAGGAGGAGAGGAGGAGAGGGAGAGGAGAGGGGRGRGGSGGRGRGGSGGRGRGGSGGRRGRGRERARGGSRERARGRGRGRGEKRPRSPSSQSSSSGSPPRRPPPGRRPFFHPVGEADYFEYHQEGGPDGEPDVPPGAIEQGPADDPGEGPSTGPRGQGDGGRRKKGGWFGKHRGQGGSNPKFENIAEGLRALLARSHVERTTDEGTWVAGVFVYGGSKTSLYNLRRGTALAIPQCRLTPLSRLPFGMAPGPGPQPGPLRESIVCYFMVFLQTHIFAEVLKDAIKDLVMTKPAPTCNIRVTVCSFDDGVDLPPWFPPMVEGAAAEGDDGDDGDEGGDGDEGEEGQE
Description: cell-based or functional assay.

Assay [6] concerns the target T3, EBNA1-Y561A (EBNA1 379-641 GST fusion with point mutation Y561A) (Epstein-Barr virus, UniProt P03211 379-641).
T3 construct: Made by site-directed mutagenesis of the WT construct; not shown: glutathione S-transferase (GST) fusion partner
T3 sequence: T1 sequence with Y183A
Put plainly: luminescence titration, selectivity assay.

The target in assay [7] is T4, EBNA1-M563A (EBNA1 379-641 GST fusion with point mutation M563A) (Epstein-Barr virus, UniProt P03211 379-641).
T4 construct: Made by site-directed mutagenesis of the WT construct; not shown: glutathione S-transferase (GST) fusion partner
T4 sequence: T1 sequence with M185A
Put plainly: luminescence titration, selectivity assay.

Assay [8] has as its target T5, EBNA1-F565A (EBNA1 379-641 GST fusion with point mutation F565A) (Epstein-Barr virus, UniProt P03211 379-641).
T5 construct: Made by site-directed mutagenesis of the WT construct; not shown: glutathione S-transferase (GST) fusion partner
T5 sequence: T1 sequence with F187A
Description: luminescence titration, selectivity assay.

Assay [9] deals with T6, EBNA1-3A (EBNA1 379-641 GST fusion with YFMVF mutated to FFAVA) (Epstein-Barr virus, UniProt P03211 379-641).
T6 construct: also called EBNA1-3A mutant; mutant EBNA1; not shown: glutathione S-transferase (GST) fusion partner
T6 sequence: T1 sequence with Y183F, M185A, F187A
Put plainly: luminescence titration, selectivity assay.

Substitutions are numbered along the chain they refer to. Where no end group is shown, it is not given here. [ ]: non-standard residue; d: D form. Ahx = NCCCCCC(=O)O

Chain of bovine serum albumin (BSA) (bovine) (P02769 25-607 limits assumed): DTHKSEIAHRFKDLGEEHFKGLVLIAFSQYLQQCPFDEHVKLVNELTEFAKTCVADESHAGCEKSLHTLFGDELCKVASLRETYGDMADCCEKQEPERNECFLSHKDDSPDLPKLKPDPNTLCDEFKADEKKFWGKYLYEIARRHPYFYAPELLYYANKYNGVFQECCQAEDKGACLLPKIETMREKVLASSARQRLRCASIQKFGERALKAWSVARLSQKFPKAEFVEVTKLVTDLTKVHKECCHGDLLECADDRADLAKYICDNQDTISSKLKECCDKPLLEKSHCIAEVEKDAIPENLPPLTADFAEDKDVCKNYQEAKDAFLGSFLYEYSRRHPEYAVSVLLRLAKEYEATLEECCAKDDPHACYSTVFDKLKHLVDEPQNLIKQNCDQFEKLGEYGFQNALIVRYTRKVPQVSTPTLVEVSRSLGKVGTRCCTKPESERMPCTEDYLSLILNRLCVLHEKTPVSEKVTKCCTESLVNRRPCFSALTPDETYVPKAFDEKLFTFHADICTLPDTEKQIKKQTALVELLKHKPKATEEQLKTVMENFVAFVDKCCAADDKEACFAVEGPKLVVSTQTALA

Take “L2P4 (peptide conjugate: L2, 4-(4-(diethylamino)styryl)-N-carboxymethylpyridinium, coupled through an amide bond to peptide P4, CAhxYFMVFGGRrRK)”: the log Kassoc in [1] turned out to be 4.7 log Kassoc.

B1: L2P3 (peptide conjugate: L2 coupled to peptide P3, CAhxRrRKGGYFMVF) (peptide)
peptide: C[Ahx]R[dR]RKGGYFMVF-NH2
modifications: not fully specified (N-terminus); printed as CAhxRrRKGGYFMVF; also: L2 dye coupled to the peptide, site not given here
notes: Fluorescent dye-peptide conjugate
On to B1, for which the “increase in emission intensity (fold)” value in [2] is 4.7 fold. For the same molecule, in assay [3], the binding ratio was 1 probe : WT-EBNA1.

B2: L2P2 (peptide conjugate: L2 coupled to peptide P2, YFMVF) (peptide)
peptide: YFMVF-NH2
modifications: not fully specified (N-terminus); also: L2 dye coupled to the peptide, site not given here
notes: as for B1
As for B2, the binding result in [4] was “no binding”.

B3: L2P4 (peptide conjugate: L2, 4-(4-(diethylamino)styryl)-N-carboxymethylpyridinium, coupled through an amide bond to peptide P4, CAhxYFMVFGGRrRK) (peptide)
peptide: CXYFMVFGGRXRK
modifications: L2 (4-(4-(diethylamino)styryl)-N-carboxymethylpyridinium) coupled to the peptide through an amide bond; Ahx = 6-aminohexanoic acid (position 2); r = D-arginine (position 11); synthesised on Rink amide resin
notes: Fluorescent dye-peptide conjugate; also called formula (I)
For the molecule B3, in assay [5], the “in vitro emission intensity in the nucleus of EBV-positive C666-1 cells (confocal microscopy), L2P4 against L2P3” value amounted to 3 fold over L2P3. The “log Kassoc” value in assay [6] stood at 5.1 log Kassoc; in assay [7] it was 3.6 log Kassoc; in assay [8] it was 4.3 log Kassoc; in [9], 3.9 log Kassoc.
